Test system: plasma proteins
Test: Plasma proteins modulated between baseline and day 28 in responders (CR, VGPR, PR; n = 19), Example 6 (Table 13)
Type: in vivo, human
Details: plasma protein (OLINK NPX); responders (CR, VGPR, PR; n = 19); itacitinib 200 mg or 300 mg QD with corticosteroids; day 28 vs baseline
Outline: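 Longitudinal comparison, day 28 versus baseline, with steroid-naive (N=10) and steroid-refractory (N=18) patients combined. Proteins measured by OLINK proximity extension, log2 normalized protein expression. Differences tested by t tests, ANOVA, Pearson correlation, P<0.05 significant.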

B1: CD48 (protein, UniProt P09326 27-220, looked up)
CD48 antigen: QGHLVHMTVVSGSNVTLNISESLPENYKQLTWFYTFDQKIVEWDSRKSKYFESKFKGRVRLDPQSGALYISKVQKEDNSTYIMRVLKKTGNEQEWKIKLQVLDPVPKPVIKIEKIEDMDDNCYLKLSCVIPGESVNYTWYGDKRPFPKELQNSVLETTLMPHNYSRCYTCQVSNSVSSKNGTVCLSPPCTLARS
  Fold Change, Decreased Expression from Baseline to Day 28: −1.6022

B2: CD244 (protein, UniProt Q9BZW8 22-370, looked up)
Natural killer cell receptor …: CQGSADHVVSISGVPLQLQPNSIQTKVDSIAWKKLLPSQNGFHHILKWENGSLPSNTSNDRFSFIVKNLSLLIKAAQQQDSGLYCLEVTSISGKVQTATFQVFVFESLLPDKVEKPRLQGQGKILDRGRCQVALSCLVSRDGNVSYAWYRGSKLIQTAGNLTYLDEEVDINGTHTYTCNVSNPVSWESHTLNLTQDCQNAHQEFRFWPFLVIIVILSALFLGTLACFCVWRRKRKEKQSETSPKEFLTIYEDVKDLKTRRNHEQEQTFPGGGSTIYSMIQSQSSAPTSQEPAYTLYSLIQPSRKSGSRKRNHSPSFNSTIYEVIGKSQPKAQNPARLSRKELENFDVYS
  Fold Change, Decreased Expression from Baseline to Day 28: −1.5176

B3: HCLS1 (protein, UniProt P14317 1-486, looked up)
Hematopoietic lineage …: MWKSVVGHDVSVSVETQGDDWDTDPDFVNDISEKEQRWGAKTIEGSGRTEHINIHQLRNKVSEEHDVLRKKEMESGPKASHGYGGRFGVERDRMDKSAVGHEYVAEVEKHSSQTDAAKGFGGKYGVERDRADKSAVGFDYKGEVEKHTSQKDYSRGFGGRYGVEKDKWDKAALGYDYKGETEKHESQRDYAKGFGGQYGIQKDRVDKSAVGFNEMEAPTTAYKKTTPIEAASSGTRGLKAKFESMAEEKRKREEEEKAQQVARRQQERKAVTKRSPEAPQPVIAMEEPAVPAPLPKKISSEAWPPVGTPPSSESEPVRTSREHPVPLLPIRQTLPEDNEEPPALPPRTLEGLQVEEEPVYEAEPEPEPEPEPEPENDYEDVEEMDRHEQEDEPEGDYEEVLEPEDSSFSSALAGSSGCPAGAGAGAVALGISAVAVYDYQGEGSDELSFDPDDVITDIEMVDEGWWRGRCHGHFGLFPANYVKLLE
  Fold Change, Decreased Expression from Baseline to Day 28: −1.455

B4: MPO (protein, UniProt P05164 165-745, looked up)
Myeloperoxidase: VTCPEQDKYRTITGMCNNRRSPTLGASNRAFVRWLPAEYEDGFSLPYGWTPGVKRNGFPVALARAVSNEIVRFPTDQLTPDQERSLMFMQWGQLLDHDLDFTPEPAARASFVTGVNCETSCVQQPPCFPLKIPPNDPRIKNQADCIPFFRSCPACPGSNITIRNQINALTSFVDASMVYGSEEPLARNLRNMSNQLGLLAVNQRFQDNGRALLPFDNLHDDPCLLTNRSARIPCFLAGDTRSSEMPELTSMHTLLLREHNRLATELKSLNPRWDGERLYQEARKIVGAMVQIITYRDYLPLVLGPTAMRKYLPTYRSYNDSVDPRIANVFTNAFRYGHTLIQPFMFRLDNRYQPMEPNPRVPLSRVFFASWRVVLEGGIDPILRGLMATPAKLNRQNQIAVDEIRERLFEQVMRIGLDLPALNMQRSRDHGLPGYNAWRRFCGLPQPETVGQLGTVLRNLKLARKLMEQYGTPNNIDIWMGGVSEPLKRKGRVGPLLACIIGTQFRKLRDGDRFWWENEGVFSMQQRQALAQISLPRIICDNTGITTVSKNNIFMSNSYPRDFVNCSTLPALNLASWREAS
  Fold Change, Decreased Expression from Baseline to Day 28: −1.8431

B5: PODXL (protein, UniProt O00592 23-558, looked up)
Podocalyxin: SPSPSPSPSQNATQTTTDSSNKTAPTPASSVTIMATDTAQQSTVPTSKANEILASVKATTLGVSSDSPGTTTLAQQVSGPVNTTVARGGGSGNPTTTIESPKSTKSADTTTVATSTATAKPNTTSSQNGAEDTTNSGGKSSHSVTTDLTSTKAEHLTTPHPTSPLSPRQPTSTHPVATPTSSGHDHLMKISSSSSTVAIPGYTFTSPGMTTTLLETVFHHVSQAGLELLTSGDLPTLASQSAGITASSVISQRTQQTSSQMPASSTAPSSQETVQPTSPATALRTPTLPETMSSSPTAASTTHRYPKTPSPTVAHESNWAKCEDLETQTQSEKQLVLNLTGNTLCAGGASDEKLISLICRAVKATFNPAQDKCGIRLASVPGSQTVVVKEITIHTKLPAKDVYERLKDKWDELKEAGVSDMKLGDQGPPEEAEDRFSMPLIITIVCMASFLLLVAALYGCCHQRLSQRKDQQRLTEELQTVENGYHDNPTLEVMETSSEMQEKKVVSLNGELGDSWIVPLDNLTKDDLDEEEDTHL
  Fold Change, Increased Expression from Baseline to Day 28: 1.2014

Source: US12099068B2, “Biomarkers for graft-versus-host disease” (Incyte Corporation, priority 2018, dated 2024)
